Positions count from the first letter of the chain named.
T1: CX3CR1 (human, UniProt P49238 1-355)
T1 sequence: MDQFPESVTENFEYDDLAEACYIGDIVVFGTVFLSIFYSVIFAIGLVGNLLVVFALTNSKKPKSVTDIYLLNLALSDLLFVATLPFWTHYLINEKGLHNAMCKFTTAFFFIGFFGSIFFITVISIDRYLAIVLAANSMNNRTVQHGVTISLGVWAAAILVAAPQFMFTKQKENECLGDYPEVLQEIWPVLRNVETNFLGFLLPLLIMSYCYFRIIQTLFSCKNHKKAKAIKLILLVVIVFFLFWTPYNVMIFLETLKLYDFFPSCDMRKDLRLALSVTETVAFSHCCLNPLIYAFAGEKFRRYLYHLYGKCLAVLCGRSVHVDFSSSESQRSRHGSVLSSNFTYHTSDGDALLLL

T2: RSV G[169-198] (respiratory syncytial virus)
T2 construct: also called synthetic RSV G peptide
T2 peptide: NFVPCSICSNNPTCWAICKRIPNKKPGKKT

B1: mAb 2D10 (antibody, V domains shown)
VH: QVQLVQSGPEVKKPGASVRLSCKASGYVFTNYGVSWVRQAPGQGLEWMGWSSPYNGNTYYAQKLKARVTMTTDTSTNTAYMELRSLRSDDTAVYYCGRDMLGVVQAVAGPFDSWGQGTLVTVSS
VL: DTPMTQSPSSVSASVGDRVTISCRASQGISNSLAWYQQKLGKAPQLLIYAASSLQSGVPSRFSGSGSGTDFTLTISSLQPEDFATYYCQQTNTFPFTFGPGTKVEVRR
B2: RSV G ectodomain (G[ecto]) (other)
chain: SANHKVTPTTAIIQDATSQIKNTTPTYLTQNPQLGISPSNPSEITSQITTILASTTPGVKSTLQSTTVKTKNTTTTQTQPSKPTTKQRQNKPPSKPNNDFHFEVFNFVPCSICSNNPTCWAICKRIPNKKPGKKTTTKPTKKPTLKTTKKDPKPQTTKSKEVPTTKPTEEPTINTTKTNIITTLLTSNTTGNPELTSQMETFHSTSSEGNPSPSQVSTTSEYPSQPSSPPNTPRQHHHHHHGWSHPQFEKGGGSGGGSGGGSWSHPQFEK
B3: RSV G (CCR) variant S177→W (peptide)
peptide: NDFHFEVFNFVPCSICWNNPTCWAICKRIPNKKPGKK
B4: Wild type RSV G (CCR) (peptide)
peptide: B3 peptide with W17S
B5: RSV G (CCR) variant K192→E + K193 →E (peptide)
peptide: B3 peptide with W17S, K32E, K33E
B6: RSV G (CCR) variant S177→R (peptide)
peptide: B3 peptide with W17R
B7: RSV G (CCR) variant H164→Y (peptide)
peptide: B3 peptide with H4Y, W17S
B8: RSV G (CCR) variant E166→K + K187 →E (peptide)
peptide: B3 peptide with E6K, W17S, K27E
B9: RSV G (CCR) variant E166→K (peptide)
peptide: B3 peptide with E6K, W17S
B10: mAb 3D3 (antibody, V domains shown)
VH: EEQLVESGGGLVQPGRSLRLSCVGSGLRFEEHAMHWVRQAPGRGLEWVSGISWNSGSVGYADSVKGRFTTSRDNAKDILFLEMNTLRSEDTALYFCAIMVATTKNDFHYYKDVWGKGTTVTVSS
VL: QIVLTQSPATLSLSPGERATLSCRASQSVSNHLAWYQQKPGQAPRLLIYETSNRATGIPPRFSGSGSGTDFTLTISSLEPEDFAVYYCQQRNNWYTFGQGTKLEIK
B11: scFv 2D10 (scFv)
scFv: QVQLVQSGPEVKKPGASVRLSCKASGYVFTNYGVSWVRQAPGQGLEWMGWSSPYNGNTYYAQKLKARVTMTTDTSTNTAYMELRSLRSDDTAVYYCGRDMLGVVQAVAGPFDSWGQGTLVTVSSASGGGGSGGGGSGGGGSGGGDTPMTQSPSSVSASVGDRVTISCRASQGISNSLAWYQQKLGKAPQLLIYAASSLQSGVPSRFSGSGSGTDFTLTISSLQPEDFATYYCQQTNTFPFTFGPGTKVEVRR
notes: Expressed in Drosophila S2 cells with BiP signal; Twin-Strep tag removed with thrombin before use; A few vector residues probably remain at both ends (RS; ASLVPR); also called recombinant single-chain variable fragment (scFv) of 2D10
B12: RSV G[161-197] (peptide)
peptide: MGNDFHFEVFNFVPCSICSNNPTCWAICKRIPNKKPGKKHHHHHH

Legend:
CX3CR1 (human) = CX3CR1 (human) (UniProt P49238); test: cell-based or functional assay; settings: scale: chemotactic index
RSV G[161-197] = molecular target: B12; test: cell-based or functional assay
CX3CR1 [1] = molecular target: T1, CX3CR1; test: cell-based or functional assay
CX3CR1 [2] = molecular target: T1, CX3CR1; test: cell-based or functional assay; remark: listed apart in the source
RSV G[169-198] = molecular target: T2, RSV G[169-198]; test: complex formation and X-ray crystal structure
Text: Diffraction data from a single crystal were processed with HKL2000.

| Molecule | Chemotactic activity (THP-1 chemotaxis assay, duplicate assays, standard deviation in parentheses) (CX3CR1 [2]) | other results |
| --- | --- | --- |
| anti-CX3CR1 rabbit polyclonal antibody (ThermoFisher Scientific Cat# PAS-19910) | – | chemotactic index of THP-1 cells pre-incubated with anti-CX3CR1 antibody, toward 5 nM RSV G[161-197] (CX3CR1 (human)): 1.1 |
| B1 | – | chemotactic index of THP-1 cells toward 5 nM RSV G[161-197] pre-incubated with 25 nM mAb (RSV G[161-197]): 1 chemotactic index (fold over serum-free media) |
| B2 | – | chemotactic index of THP-1 cells toward 5 nM RSV G[ecto] (CX3CR1 [1]): 3.9 chemotactic index (fold over serum-free media) |
| B3 | 1.2 chemotactic index (negative control PBS = 1.0) | – |
| B4 | 6.2 chemotactic index (negative control PBS = 1.0) | – |
| B5 | 2.5 chemotactic index (negative control PBS = 1.0) | – |
| B6 | 0.9 chemotactic index (negative control PBS = 1.0) | – |
| B7 | 3.8 chemotactic index (negative control PBS = 1.0) | – |
| B8 | 1.8 chemotactic index (negative control PBS = 1.0) | – |
| B9 | 1.6 chemotactic index (negative control PBS = 1.0) | – |
| B10 | – | chemotactic index of THP-1 cells toward 5 nM RSV G[161-197] pre-incubated with 25 nM mAb (RSV G[161-197]): 1.5 chemotactic index (fold over serum-free media) |
| B11 | – | binding result (RSV G[169-198]): binds |
| B12 | – | chemotactic index of THP-1 cells toward 5 nM RSV G[161-197] (CX3CR1 [1]): 4.2 chemotactic index (fold over serum-free media) |
